“Also recorded” adds a separate entry of the source.
Legend:
M6-bone cells = assay: Western blot of IFN-γ-treated cells; assay type: cell-based, mouse; details: 100 ng/ml IFN-γ, 18 hours
Description: M6 and M6-bone cells were stimulated with 100 ng/ml recombinant mouse IFN-γ and cultured in a medium containing 1% FBS for 18 hours. The cells were lysed in a buffered mixture of a PRO-PREP™ protein extraction solution (iNtRON Biotechnology, 17081) and a phosphatase inhibitor cocktail (Gen DEPOT, p3200-001). Protein concentration was measured using the Bradford assay (Bio-rad, 500-0006, Hercules, CA, USA). 30 μg of the protein was separated by SDS-polyacrylamide gel electrophoresis and transferred to a PVDF membrane (10600023), and then the membrane was blocked with Tris-buffered saline containing 0.05% Tween 20 and 5% non-fat milk powder for 1 hour. The PVDF membrane was incubated overnight at 4° C. with primary antibodies. HIF1α (NB100-105, Novusbio), c-MET, Akt (Cat #9272), and p-Akt (Cat #9271) antibodies were purchased from Cell Signaling Technology (Beverly, MA, USA), and β-actin (Cat #A5316) was purchased from Sigma (Saint Louis, MO, USA). Subsequently, a horseradish peroxidase-conjugated secondary antibody was cultured at room temperature for 1 hour. Immunoreactive bands were detected with a chemiluminescent reagent (Cat #RPN2106).

[1] = tested on: bone marrow monocytes (BMMs); assay: Osteoclastogenesis analysis in bone marrow monocytes (TRAP staining); assay type: cell-based, C3 (1)-Tag mice; details: IFN-γ 50, 100 ng/mL with M-CSF 30 ng/mL and RANKL 100 ng/mL, vs positive control
Description: Primary mouse bone marrow monocytes (BMMs) were isolated from the hind limb bones (two femurs and two tibiae) of 4 to 8 week-old C3 (1)-Tag mice. The mouse BMMs were flushed into a 15 ml tube via 8 ml of a serum-free 2 mM EDTA α-MEM medium. A Lymphocyte Separation Medium (LSM: MP Biomedicals: Catalog No. 50494) was dispensed into a new tube, 8 ml of the flushed BMMs were gently added thereon and centrifuged at 1600 rpm for 20 minutes at room temperature. The isolated BMMs were inoculated at 3×10^5 cells/well in a 48-well plate with 0.5 mL of a medium per well and incubated in α-MEM containing 10% FBS and 1% antibiotics.
BMMs in a negative control group were treated with M-CSF (30 ng/mL), BMMs in a positive control group were treated with M-CSF and RANKL (100 ng/mL), and BMMs in an experimental group were stimulated by treatment with M-CSF, RANKL, and IFN-γ (50, 100 ng/mL). On days 1, 3, 5, and 7 of culture, the medium was replaced, and each experimental group was treated with M-CSF, RANKL, and IFN-γ. After 9 days of culture, staining was performed using a TRAP staining kit (KT-008, KAMIYA biomedical company, Seattle, WA, USA) after fixing the cells with 10% formalin. For each well, TRAP-positive (TRAP^+) multinucleated cells (TRAP^+ MNC) were counted. All the experiments were independently repeated three times.

B1: IFN-γ: recombinant mouse IFN-γ, key cytokine of Th1 immunity (protein, UniProt P01580 23-155, looked up)
Interferon gamma: HGTVIESLESLNNYFNSSGIDVEEKSLFLDIWRNWQKDGDMKILQSQIISFYLRLFEVLKDNQAISNNISVIESHLITTFFSNSKAKKDAFMSIAKFEVNNPQVQRQAFNELIRVVHQLLPESSLRKRKRSRC
**Q.** With B1 as the molecule, how does the “expression of c-MET and p-Akt (Western blot)” value (M6-bone cells) read?
**A.** decreased

**Q.** What about the “M-CSF and RANKL-induced osteoclastogenesis” value [1] of the same molecule?
**A.** completely inhibited osteoclastogenesis; also recorded: inhibits

From patent US20250134975A1, “CANCER VACCINE COMPRISING EPITOPE OF C-MET AND USE THEREOF” (KOREA UNIVERSITY RESEARCH AND BUSINESS FOUNDATION, priority 2022, published 2025)
